Data reported in patent US20250340660A1 (published 2025).
Substitutions are numbered along the chain they refer to.

Key:
[1] = target: T1, cynomolgus CD30L expressed on HEK293 cells (cynomolgus, UniProt A0A7N9CVX7 1-234); test: cell-based or functional assay
T1 sequence: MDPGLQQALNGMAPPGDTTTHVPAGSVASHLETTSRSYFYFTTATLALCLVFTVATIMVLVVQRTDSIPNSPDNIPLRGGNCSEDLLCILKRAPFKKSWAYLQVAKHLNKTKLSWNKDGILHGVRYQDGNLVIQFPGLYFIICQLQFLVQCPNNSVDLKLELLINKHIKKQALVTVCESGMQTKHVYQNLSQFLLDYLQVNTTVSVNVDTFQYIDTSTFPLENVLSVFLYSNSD

[2] = target: T2, human CD30L expressed on B16 cells (human, UniProt P32971 1-234); test: cell-based or functional assay
T2 sequence (looked up): T1 sequence with T19A, T20M, E32G, F41L, I75V, R78K, V204I, V227I

[3] = target: T3, human CD30L expressed on cells (human, UniProt P32971 1-234); test: flow cytometry, hybridoma supernatant 1/50 dil, cells expressing human CD30L
T3 construct: also called huCD30L; TNFSF8
T3 sequence: T1 sequence with T19A, T20M, E32G, F41L, I75V, R78K, V204I, V227I

[4] = target: T4, cynomolgus CD30L expressed on cells (cynomolgus, UniProt A0A7N9CVX7 1-234); test: flow cytometry, hybridoma supernatant 1/50 dil, cells expressing cynomolgus CD30L
T4 construct: whole, on cells; also called cyCD30L; cyno CD30L
T4 sequence: T1 sequence

[5] = target: T5, recombinant human CD30L protein (human, UniProt P32971 63-234, limits assumed); test: ELISA, hybridoma supernatant 1/500 dil, recombinant human CD30L
T5 construct: also called huCD30L; rhCD30L
T5 sequence (looked up): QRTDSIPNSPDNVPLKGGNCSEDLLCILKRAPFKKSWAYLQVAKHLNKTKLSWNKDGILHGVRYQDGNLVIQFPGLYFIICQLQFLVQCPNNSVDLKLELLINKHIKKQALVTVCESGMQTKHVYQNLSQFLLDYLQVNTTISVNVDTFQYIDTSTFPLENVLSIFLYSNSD

[6] = target: T5, recombinant human CD30L protein; test: ELISA, hybridoma supernatant 1/5000 dil, recombinant human CD30L
[7] = target: T5, recombinant human CD30L protein; test: ELISA, hybridoma supernatant 1/50 dil, recombinant human CD30L
[8] = target: T6, human CD30L (recombinant protein) (human, UniProt P32971 63-234); test: Carterra, human CD30L
T6 construct: also called rhCD30L; TNFSF8
T6 sequence: T5 sequence (looked up)

[9] = target: T7, recombinant human CD30L (human, UniProt P32971 63-234, limits assumed); test: biosensor: antibody captured, CD30L bound, competitor rhCD30 added; signal of CD30 association (over 0.15 = non-blocking)
T7 construct: also called rhCD30L; TNFSF8
T7 sequence (looked up): T5 sequence (looked up)
Procedure: Briefly, individual anti-human biosensors were loaded with purified IgG (normalized to 10 μg/mL) and a baseline was measured for each biosensor. Biosensors were saturated with biotin and with polyclonal huIgG and a baseline was measured. […] Biosensors were moved to buffer wells to measure the dissociation rate.

B1: anti-CD30L antibody clone 2 (antibody, V domains shown)
VH: EVQLVESGGGLVQPGRSLRLSCAASGFNFDDYAMHWVRQAPGKGLEWVSGISWRSGNIGYAGSVKGRFTISRDNAKNSLYLQMNSLRPEDSALYYCAKDKGIGFNWNYEGFDYWGQGTLVTVSS
VL: DIQMTQSPSSLSASVGDRVTITCRASQGISNHLAWFQQKPGKAPKSLIYAASSLQSGVPSKFSGSGSGTDFTLTISSLQPEDFATYYCQQYVTYPLTFGGGTKVEIK
B1 was tested, and the “Inhibition of IL-8 release in a dual cell assay (HEK293-cyCD30L cells + K299 cells) IC50” value [1] was 0.31 nM and the “Inhibition of IL-8 release in a dual cell assay (B16-huCD30L cells + K299 cells) IC50” value [2] was 0.81 nM.

B2: anti-CD30L antibody Clone 2 (parental, hybridoma) (antibody, V domains shown)
VH: B1 VH
VL: B1 VL
notes: Tested as diluted hybridoma supernatant from mice with a humanized immunoglobulin locus
B2 was tested, and the “Cell Binding (MFI)” value [3] was 280 MFI, the “Cell Binding (MFI)” value [4] was 57.6 MFI and the “Elisa Binding (OD)” value [5] was 1.71 OD. For the same binder, the “Elisa Binding (OD)” value [6] was 0.565 OD and the “Elisa Binding (OD)” value [7] was 2.15 OD.

B3: anti-CD30L antibody clone 2 germlined (antibody, V domains shown)
VH: B1 VH with G62D, P88A, S91T
VL: B1 VL with K61R
With B3 the “Inhibition of IL-8 release in a dual cell assay (HEK293-cyCD30L cells + K299 cells) IC50” value [1] was 0.41 nM and the “Inhibition of IL-8 release in a dual cell assay (B16-huCD30L cells + K299 cells) IC50” value [2] was 0.89 nM.

B4: anti-CD30L antibody clone 80 (antibody, V domains shown)
VH: EVQLVESGGGLVQPGGSLRLSCEVSGFTFSSYDMHWVRQVTGTGLEWVSSIGIGGDTYYPGSVKGRFTISRENAKNSLYLQMNSLRGGDTGVYYCARGEWDLLWYFMDVWGKGTTVTVSS
VL: B1 VL with V15I, N31S, H32W, F36Y, S46L, K61R, Y91A, V92N, T93S, Y94F
notes: Purified recombinant antibody
With B4 the Kd [8] was 3.54 nM.

B5: anti-CD30L antibody clone 63 (antibody, V domains shown)
VH: EVQLVESGGGLVQPGGSLRLSCAASGFMFSSYSMNWVRQAPGKGLEWVSYISSSSSTIYDADSVKGRFTISRDDAKNSLYLQMNSLRDEDTAVYYCTREAYPGYYYNYMDVWGKGTTVTVSS
VL: DIQMTQSPSSLSASVGDRVTITCRASQSISSRLAWYQQKPGKAPNLLIYKASNLESGVPSRFSGSGSGTEFTLTISSLQPDDFATYYCQQYNSYSRTFGQGTKVEIK
notes: Purified recombinant antibody
B5 was tested, and the Kd [8] was 1.85 nM.

B6: anti-CD30L antibody clone 63 (antibody, V domains shown)
VH: B5 VH
VL: B5 VL
notes: purified recombinant IgG, humanized mouse strain #1; also called Clone ID 63
For B6, the “rhCD30L:rhCD30 Blocking” value [9] was 0.0592 relative units.

B7: anti-CD30L antibody clone 64 (antibody, V domains shown)
VH: EVQLVESGGGLVQPGGSLRLSCAASGFTFSNYAMTWVRQAPGKGLEWVSAISGFGGSTYYADSVKGRFTISRDNSKNTLYLQMNSLRAEDTAVYYCAKDHDYYAFDYWGQGTLVTVSS
VL: not shown
notes: Purified recombinant antibody
B7 was tested, and the Kd [8] was 1.57 nM.

B8: anti-CD30L antibody clone 64 (antibody, V domains shown)
VH: B7 VH
VL: not shown
notes: purified recombinant IgG, humanized mouse strain #1; also called Clone ID 64
In the case of B8, the “rhCD30L:rhCD30 Blocking” value [9] is reported as 0.0633 relative units.

B9: anti-CD30L antibody clone 65 (antibody, V domains shown)
VH: B7 VH with R19K, F54Y, D62A, Y80F, T115P
VL: not shown
notes: purified recombinant IgG, humanized mouse strain #1; also called Clone ID 65
B9 was tested, and the “rhCD30L:rhCD30 Blocking” value [9] was 0.0522 relative units.

B10: anti-CD30L antibody clone 65 (antibody, V domains shown)
VH: B7 VH with R19K, F54Y, D62A, Y80F, T115P
VL: not shown
notes: Purified recombinant antibody
B10 was tested, and the Kd [8] was 1.52 nM.

B11: anti-CD30L antibody clone 82 (antibody, V domains shown)
VH: EVQLVESGGGLVQPGGSLRLSCAVSGITFSNAWMSWVRQAPGKGLEWVGRIKSKTYGGTTDYAAPVKGRFIISRDDSKDTLYLQMNSLKTEDTAIYYCTTDPWNYVNYNYFMDVWGKGTTVTVSS
VL: DIQMTQSPSSLSASVGDRVTITCRASQDIRNYLAWYQQKPGKITHLLVYAASTLQSGVPSRFSGSGSGTDFTLTINSLQPEDVATYYCQNYFSVPLTFGGGTKVEIK
notes: Purified recombinant antibody
Binder B11 has a Kd [8] of 0.559 nM.

B12: anti-CD30L Reference 1 antibody (antibody, human IgG1, lambda, V domains shown)
VH: QVQLQESGPGLVKPSETLSLTCTVSGGSISSYIWSWIRQPAGKGLEWIGRIYASGNTNYNPSLKSRVTISVDTSKNQFSLKLSSMTAADTAVYYCARDYRVAGTYYYYYGLDVWGQGTTVTVSS
VL: QSALTQPASVSGSPGQSITISCTGTSSDVGVYDYVSWYQQHPGKAPKLMIYEVSNRPSGVSNRFSGSKSGNTASLTISGLQTEDEADYYCSSYTSRSTWVFGGGTKLTVLG
For B12, the “Inhibition of IL-8 release in a dual cell assay (HEK293-cyCD30L cells + K299 cells) IC50” value [1] was 0.79 nM and the “Inhibition of IL-8 release in a dual cell assay (B16-huCD30L cells + K299 cells) IC50” value [2] was 1.61 nM.

B13: anti-CD30L antibody Clone 4 (parental, hybridoma) (antibody, V domains shown)
VH: QVQLVESGGGVVQPGRSLRLSCAASGFPFSSYGMHWVRQAPGKGLEWVTFIWFDGNNKDYADSVKGRFSVSRDNSKNTLYLQMNSLRADDTAVYYCARNGVYYGSGAYVDYWGQGTLVTVSS
VL: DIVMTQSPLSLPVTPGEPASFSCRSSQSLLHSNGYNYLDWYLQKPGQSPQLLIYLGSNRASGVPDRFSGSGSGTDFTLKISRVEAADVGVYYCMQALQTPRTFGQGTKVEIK
notes: as for B2
B13 was tested, and the “Cell Binding (MFI)” value [3] was 151 MFI, the “Cell Binding (MFI)” value [4] was 67.8 MFI and the “Elisa Binding (OD)” value [5] was 2.65 OD. For the same binder, the “Elisa Binding (OD)” value [6] was 0.68 OD and the “Elisa Binding (OD)” value [7] was 3.08 OD.

B14: anti-CD30L antibody clone 1 (antibody, V domains shown)
VH: QVQLQESGPGLVKPSETLSLTCTVSGGSISGYYWSWIRQPPVKGLEWIGYIFYSGYTKYNPSLKSRVTISVDTSKNQFSLKLSSVTAADTAVYYCARDRWDFDYWGQGALVTVSS
VL: AIQMTQSPSYLSASVGDRVTIACRASQGIRNNLGWYQQKPGKAPKLLIYAESSLQSGVPSRFSGSGSGTDFTLTISSLQPEDFATYYCLQDFNYPYTFGQGTKLEIK
In the case of B14, the “Inhibition of IL-8 release in a dual cell assay (HEK293-cyCD30L cells + K299 cells) IC50” value [1] is reported as 0.39 nM and the “Inhibition of IL-8 release in a dual cell assay (B16-huCD30L cells + K299 cells) IC50” value [2] is reported as 1.43 nM.

B15: anti-CD30L antibody clone 1 germlined (antibody, V domains shown)
VH: B14 VH with V42G, A109T
VL: B14 VL with Y10S, A22T
For B15, the “Inhibition of IL-8 release in a dual cell assay (HEK293-cyCD30L cells + K299 cells) IC50” value [1] was 0.43 nM and the “Inhibition of IL-8 release in a dual cell assay (B16-huCD30L cells + K299 cells) IC50” value [2] was 1.29 nM.

B16: anti-CD30L antibody Clone 1 (parental, hybridoma) (antibody, V domains shown)
VH: B14 VH
VL: B14 VL
notes: as for B2
B16 was tested, and the “Cell Binding (MFI)” value [3] was 208 MFI, the “Cell Binding (MFI)” value [4] was 77.3 MFI and the “Elisa Binding (OD)” value [5] was 3.02 OD. The “Elisa Binding (OD)” value [6] was 1.28 OD and the “Elisa Binding (OD)” value [7] was 3.59 OD.

B17: anti-CD30L antibody Clone 3 (parental, hybridoma) (antibody, V domains shown)
VH: B14 VH
VL: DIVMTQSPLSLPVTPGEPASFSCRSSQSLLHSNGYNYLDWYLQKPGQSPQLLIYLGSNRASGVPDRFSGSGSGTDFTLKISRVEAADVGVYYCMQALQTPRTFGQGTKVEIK
notes: as for B2
For B17, the “Cell Binding (MFI)” value [3] was 153 MFI, the “Cell Binding (MFI)” value [4] was 72.4 MFI and the “Elisa Binding (OD)” value [5] was 2.54 OD. For the same binder, the “Elisa Binding (OD)” value [6] was 0.662 OD and the “Elisa Binding (OD)” value [7] was 3.5 OD.
